In paper PMC12564070, “Rapid and Quantitative Detection of TNF-α in Human Tears Using a Portable Electrochemiluminescence-Based Device”:

What was measured:
[1] = molecular target: TNF-alpha (Homo sapiens, UniProt P01375 77-233); assay: electrochemiluminescence aptasensor (Apt-VSM/ITO electrode); linear 0.1-200 pg/mL, LOD 0.089 pg/mL; Ru luminophore/TPrA; Aptamer immobilized on VSM/ITO electrode, 0.5% BSA block, 0.1 M PBS rinse; binding buffer, pH and temperature not given in the material; details: protein: commercial; chain copies: 3
[2] = molecular target: IL-6 (UniProt P05231 30-212); assay: electrochemiluminescence aptasensor (Apt-VSM/ITO electrode); 1 ng/mL IL-6, interference test; negligible ECL variation; Aptamer immobilized on VSM/ITO electrode, 0.5% BSA block, 0.1 M PBS rinse; binding buffer, pH and temperature not given in the material
Sequence of IL-6 (P05231 30-212): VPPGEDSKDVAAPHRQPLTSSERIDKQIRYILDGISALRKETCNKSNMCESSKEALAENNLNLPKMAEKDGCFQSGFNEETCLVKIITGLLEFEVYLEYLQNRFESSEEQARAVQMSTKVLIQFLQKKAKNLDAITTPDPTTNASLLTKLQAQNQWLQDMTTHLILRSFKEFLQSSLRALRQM

Sequence of TNF-alpha (P01375 77-233): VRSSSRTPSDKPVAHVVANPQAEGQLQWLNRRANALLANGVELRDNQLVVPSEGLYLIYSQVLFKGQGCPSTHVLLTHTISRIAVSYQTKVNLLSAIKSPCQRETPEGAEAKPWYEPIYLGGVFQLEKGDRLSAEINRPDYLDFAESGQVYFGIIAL

B1: TNF-alpha aptamer (ssDNA)
DNA: GCGCCACTACAGGGGAGCTGCCATTCGAATAGGTGGGCCGC
modifications: amino-modified (end not stated), coupled to GPTMS epoxy groups on VSM/ITO electrode
- binding result [1]: binds
- binding result [2]: no binding
